Molecular target: T1, Mcx1^Y174A-3xFLAG (pore-1 loop Y174A), purified recombinant (S. cerevisiae, UniProt P38323 14-520, Y174A)
T1 sequence (looked up): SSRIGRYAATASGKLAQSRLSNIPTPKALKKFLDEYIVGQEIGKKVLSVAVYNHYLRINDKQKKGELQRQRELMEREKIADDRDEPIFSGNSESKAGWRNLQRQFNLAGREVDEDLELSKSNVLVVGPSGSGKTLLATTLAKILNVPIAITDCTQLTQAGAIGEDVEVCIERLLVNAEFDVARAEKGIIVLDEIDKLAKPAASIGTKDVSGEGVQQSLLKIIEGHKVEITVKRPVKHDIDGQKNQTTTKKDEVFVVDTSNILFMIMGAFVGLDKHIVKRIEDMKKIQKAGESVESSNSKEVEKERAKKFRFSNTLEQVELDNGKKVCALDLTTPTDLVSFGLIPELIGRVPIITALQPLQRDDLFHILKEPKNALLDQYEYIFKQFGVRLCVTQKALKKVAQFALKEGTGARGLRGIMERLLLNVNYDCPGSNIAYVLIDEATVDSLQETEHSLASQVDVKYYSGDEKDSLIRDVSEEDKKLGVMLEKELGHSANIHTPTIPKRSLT
Assay: co-IP

fold amount bound relative to holoHem1: ~10 fold
B1: apoHem1 (PLP-free Hem1, yeast ALA synthase), purified recombinant (enzyme)
chain: not shown

Source: publication PMC4467794 (Cell, 2015)
